Measured values: patent US11311577B2, “Coordinating gene expression using RNA destabilizing elements” (Chimera Bioengineering, Inc., priority 2018, dated 2022)

Tested on: T-cells
Assay: Removal of microRNA binding sites from an RDE: expression from constructs, GFP in T-cells
Assay type: cell-based
Conditions: MIR186 micro-RNA sites removed from the 3′-UTR of IL-2
From the text: The AU-rich element from the 3′-UTR of IL-2 has mir-181 and mir 186 microRNA binding sites. Different combinations of the microRNA sites were removed from the 3′-UTR of IL-2. When the MIR186 micro-RNA sites were removed from the 3′-UTR of IL-2 the dynamic range of expression from constructs with this UTR increased 50 fold. The modified IL-2, 3′-UTR replaces CTT in the sequence with GAA and is shown below (the new GAA is underlined in the sequence):
Different combinations of the micro-RNA sites were removed from the 3′UTR of IFNg and tested for increased expression. When the mir125 micro-RNA sites were removed from the 3′-UTR of IFN-γ the expression rate from constructs with this UTR is increased.
Expression of GFP in T-cells, transfected with the RDE-GFP plus the microRNA sites, is compared to expression of GFP in T-cells with the RDE-GFP in which the microRNA sites have been removed, following activation with CD3/CD28 beads for 24 hours. The removal of the microRNA sites increased expression of the GFP by a factor of between 2-5 after 24 hours, relative to the cells with microRNA sites.

B1: modified IL-2, 3′-UTR: IL-2 3′-UTR with MIR186 micro-RNA sites removed, CTT replaced with GAA (SEQ ID NO: 22) (nucleic acid, listed as Homo sapiens)
DNA: TAATTAAGTGCTTCCCACTTAAAACATATCAGGCCTTCTATTTATTTAAATATTTAAATTTTATATTTATTGTTGAATGTATGGTTTGCTACCTATTGTAACTATTATTCTTAATCTTAAAACTATAAATATGGATCTTTTATGATTGAATTTGTAAGCCCTAGGGGCTCTAAAATGGTTTCACTTATTTATCCCAAAATATTTATTATTATGTTGAATGTTAAATATAGTATCTATGTAGATTGGTTAGTAAAACTATTTAATAAATTTGATAAATATAAA
- increase of dynamic range of expression: 50 fold
